± gives the uncertainty stated by the source.
B1: Cold shock protein CspB, residues 1 to 66; numbered along this chain, P41016 (parent)
chain: MQRGKVKWFNNEKGYGFIEVEGGSDVFVHFTAIQGEGFKTLEEGQEVSFEIVQGNRGPQAANVVKL

Variants of: B1
Assay: abundance fitness (aPCA) (normalised: wild type 0, dead -1); higher = more abundant; growth selection in yeast, the domain comes from the species named
Settings: Bacillus caldolyticus

Compared with A60M, P58L is higher in abundance fitness: -0.752 ± 0.062 for the first, -0.018 ± 0.028 for the second.

P58H and P58V are within error of each other in abundance fitness: -0.142 ± 0.12 for the first, -0.021 ± 0.035 for the second.

P58S and K65M are within error of each other in abundance fitness: -0.026 ± 0.038 for the first, -0.078 ± 0.048 for the second.

K65A and K65T are within error of each other in abundance fitness: 0.002 ± 0.051 for the first, -0.003 ± 0.055 for the second.

K65W and N10M are within error of each other in abundance fitness: -0.145 ± 0.055 for the first, -0.083 ± 0.053 for the second.

Going from N10F to N10S, the abundance fitness rises from -0.132 ± 0.061 to 0.01 ± 0.034.

Going from N10I to V6E, the abundance fitness falls from -0.023 ± 0.074 to -1.02 ± 0.091.

S48L and S48T are within error of each other in abundance fitness: -0.035 ± 0.032 for the first, 0.002 ± 0.047 for the second.

G37R and G37A are within error of each other in abundance fitness: -0.083 ± 0.034 for the first, -0.082 ± 0.035 for the second.

G37V and M1L are within error of each other in abundance fitness: -0.086 ± 0.033 for the first, -0.044 ± 0.044 for the second.

M1K and M1Q are within error of each other in abundance fitness: -0.1 ± 0.069 for the first, -0.021 ± 0.2 for the second.

M1Y and M1C are within error of each other in abundance fitness: 0.027 ± 0.15 for the first, -0.102 ± 0.1 for the second.

Compared with F27H, F27L is lower in abundance fitness: -0.075 ± 0.077 for the first, -0.187 ± 0.029 for the second.

F27S and F27E are within error of each other in abundance fitness: -0.212 ± 0.03 for the first, -0.183 ± 0.041 for the second.

G57C and G57E are within error of each other in abundance fitness: -0.163 ± 0.055 for the first, -0.213 ± 0.045 for the second.

K39G and K39Y are within error of each other in abundance fitness: -0.154 ± 0.045 for the first, -0.148 ± 0.062 for the second.

K39D and K39M are within error of each other in abundance fitness: -0.148 ± 0.068 for the first, -0.137 ± 0.038 for the second.

Going from I18F to I18Y, the abundance fitness falls from -0.297 ± 0.044 to -1.07 ± 0.18.

First: I33A
Second: Q2S
The abundance fitness of the first is lower: -0.311 ± 0.038 for the first, -0.034 ± 0.035 for the second.

Going from Q2P to E19C, the abundance fitness rises from -0.206 ± 0.038 to 0.021 ± 0.06.

E19M and E42N are within error of each other in abundance fitness: 0 ± 0.043 for the first, -0.02 ± 0.065 for the second.

E42G and E42C are within error of each other in abundance fitness: -0.001 ± 0.036 for the first, -0.013 ± 0.064 for the second.

V47A and G22E are within error of each other in abundance fitness: -0.215 ± 0.25 for the first, -0.013 ± 0.054 for the second.

Compared with G22C, H29A is lower in abundance fitness: 0.02 ± 0.057 for the first, -0.532 ± 0.39 for the second.

H29L and H29M are within error of each other in abundance fitness: -0.48 ± 0.12 for the first, -0.274 ± 0.13 for the second.

E43L and E43Q are within error of each other in abundance fitness: -0.012 ± 0.034 for the first, 0.025 ± 0.058 for the second.

E43A and E43S are within error of each other in abundance fitness: 0.023 ± 0.047 for the first, -0.014 ± 0.038 for the second.

E43I and G35Y are within error of each other in abundance fitness: -0.031 ± 0.065 for the first, -0.068 ± 0.074 for the second.

G35V and G35Q are within error of each other in abundance fitness: -0.033 ± 0.037 for the first, 0.001 ± 0.045 for the second.

Going from G35D to F9R, the abundance fitness falls from -0.004 ± 0.076 to -0.583 ± 0.03.

Compared with F9T, K7T is higher in abundance fitness: -0.306 ± 0.038 for the first, -0.052 ± 0.032 for the second.

First: K7M
Second: V63Y
The abundance fitness of the first is higher: -0.072 ± 0.049 for the first, -0.798 ± 0.082 for the second.

V63L and N11Y are within error of each other in abundance fitness: -0.018 ± 0.03 for the first, -0.111 ± 0.074 for the second.

N11G and N11K are within error of each other in abundance fitness: -0.071 ± 0.038 for the first, -0.047 ± 0.078 for the second.

N11A and N11Q are within error of each other in abundance fitness: -0.052 ± 0.046 for the first, -0.138 ± 0.063 for the second.

Going from E12N to E12V, the abundance fitness falls from 0.042 ± 0.066 to -0.064 ± 0.032.

E12H and E12P are within error of each other in abundance fitness: 0.009 ± 0.054 for the first, 0.036 ± 0.032 for the second.

E12K and E12W are within error of each other in abundance fitness: 0.077 ± 0.074 for the first, 0.005 ± 0.04 for the second.

V28R and V28N are within error of each other in abundance fitness: -0.993 ± 0.05 for the first, -0.999 ± 0.34 for the second.

V28H and V28D are within error of each other in abundance fitness: -1.04 ± 0.21 for the first, -0.912 ± 0.14 for the second.

R3N and G44S are within error of each other in abundance fitness: -0.061 ± 0.067 for the first, -0.029 ± 0.042 for the second.

G44N and R56T are within error of each other in abundance fitness: -0.086 ± 0.1 for the first, -0.142 ± 0.055 for the second.

R56M and R56E are within error of each other in abundance fitness: -0.068 ± 0.064 for the first, -0.066 ± 0.053 for the second.

First: R56A
Second: L41W
The abundance fitness of the first is higher: -0.069 ± 0.049 for the first, -0.359 ± 0.033 for the second.

L41I and G54F are within error of each other in abundance fitness: 0.003 ± 0.064 for the first, -0.127 ± 0.075 for the second.

G54C and G54D are within error of each other in abundance fitness: -0.013 ± 0.047 for the first, -0.07 ± 0.067 for the second.

E46M and E46W are within error of each other in abundance fitness: 0.006 ± 0.048 for the first, -0.035 ± 0.043 for the second.

E46F and E46D are within error of each other in abundance fitness: -0.025 ± 0.044 for the first, -0.153 ± 0.084 for the second.

Going from E46S to T31D, the abundance fitness falls from 0.015 ± 0.034 to -0.141 ± 0.11.

T31G and T31A are within error of each other in abundance fitness: -0.079 ± 0.044 for the first, -0.134 ± 0.049 for the second.

I51Q and I51F are within error of each other in abundance fitness: 0.007 ± 0.047 for the first, -0.082 ± 0.079 for the second.

Q45Y and Q45G are within error of each other in abundance fitness: -0.072 ± 0.12 for the first, 0.032 ± 0.042 for the second.

Q45M and L66F are within error of each other in abundance fitness: -0.032 ± 0.057 for the first, 0.033 ± 0.086 for the second.

L66M and L66R are the same in abundance fitness: -0.018 ± 0.057 for the first, -0.018 ± 0.042 for the second.

Q34K and Q34P are within error of each other in abundance fitness: 0.01 ± 0.053 for the first, -0.062 ± 0.04 for the second.

Q34M and S24T are within error of each other in abundance fitness: 0.006 ± 0.042 for the first, 0.003 ± 0.047 for the second.

First: S24P
Second: G14I
The abundance fitness of the first is higher: 0.012 ± 0.057 for the first, -0.902 ± 0.077 for the second.

Going from G14D to G14H, the abundance fitness rises from -0.468 ± 0.059 to -0.047 ± 0.072.

G16R and G16S are within error of each other in abundance fitness: -1.08 ± 0.056 for the first, -1.01 ± 0.054 for the second.

First: G16E
Second: G16V
The abundance fitness of the first is lower: -1.16 ± 0.12 for the first, -0.847 ± 0.046 for the second.

E36L and E36D are within error of each other in abundance fitness: -0.024 ± 0.031 for the first, -0.019 ± 0.063 for the second.

E36Q and E36F are within error of each other in abundance fitness: 0.021 ± 0.079 for the first, -0.023 ± 0.047 for the second.

V64N and V26M are within error of each other in abundance fitness: -0.02 ± 0.087 for the first, -0.056 ± 0.043 for the second.

A61L and A61E are within error of each other in abundance fitness: -0.067 ± 0.044 for the first, -0.051 ± 0.048 for the second.

A61V and A61D are within error of each other in abundance fitness: -0.06 ± 0.06 for the first, -0.024 ± 0.073 for the second.

K13S and G23Q are within error of each other in abundance fitness: -0.044 ± 0.038 for the first, 0.012 ± 0.055 for the second.

G23N and G23K are within error of each other in abundance fitness: -0.066 ± 0.081 for the first, 0.052 ± 0.057 for the second.

G23Y and F30V are within error of each other in abundance fitness: -0.061 ± 0.048 for the first, -0.049 ± 0.047 for the second.

F30S and Q53S are within error of each other in abundance fitness: -0.047 ± 0.036 for the first, -0.03 ± 0.036 for the second.

Going from Q53A to F17K, the abundance fitness falls from -0.002 ± 0.045 to -0.138 ± 0.07.

E50I and E50R are within error of each other in abundance fitness: -0.049 ± 0.066 for the first, -0.002 ± 0.036 for the second.

F38S and F38K are within error of each other in abundance fitness: -0.057 ± 0.037 for the first, -0.049 ± 0.051 for the second.

F38E and T40H are within error of each other in abundance fitness: -0.078 ± 0.043 for the first, -0.064 ± 0.047 for the second.

T40S and F49V are within error of each other in abundance fitness: -0.023 ± 0.034 for the first, -0.076 ± 0.03 for the second.

First: F49W
Second: K5W
The abundance fitness of the first is lower: -0.69 ± 0.074 for the first, -0.052 ± 0.03 for the second.

K5V and D25N are within error of each other in abundance fitness: -0.03 ± 0.039 for the first, -0.047 ± 0.08 for the second.

Q59L and Q59C are within error of each other in abundance fitness: 0.016 ± 0.025 for the first, -0.05 ± 0.061 for the second.

E21D and V52N are within error of each other in abundance fitness: -0.028 ± 0.076 for the first, -0.02 ± 0.093 for the second.

V52I and V20R are within error of each other in abundance fitness: -0.018 ± 0.048 for the first, -0.006 ± 0.053 for the second.

V20T and V20D are within error of each other in abundance fitness: 0.008 ± 0.044 for the first, -0.054 ± 0.054 for the second.

Compared with A32D, A32L is lower in abundance fitness: -0.129 ± 0.055 for the first, -0.472 ± 0.025 for the second.

First: G4N
Second: G4A
The abundance fitness of the first is lower: -0.368 ± 0.029 for the first, -0.117 ± 0.025 for the second.

Going from G4C to G4Y, the abundance fitness rises from -0.905 ± 0.042 to -0.81 ± 0.041.

Work on G4T yielded an abundance fitness of -0.77 ± 0.039.
